The results in this text go back to the supplement of paper PMC10567573.

The chains are these.
B1: ZNF207 (parent)
chain: FQPQPVQPQQGYIPPMAQPGLPPV
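Further: lentivirally expressed fusions sorted by FACS into six bins by GFP to DsRed ratio, PSI derived from sequencing read proportions per bin multiplied by bin number.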

In the series the parent is B1. The series is described as follows: protein stability index of a GFP-peptide fusion (GPS, HEK-293T) (PSI 1-6); higher = more stable. As to conditions: c terminus: a fixed tail appended.
As for FQPQPVQPQQGYIPPMAQAGLPPV [P19A], the protein stability index was determined as 3.32.

As to FQPQPVQPQQGYIPPMAQHGLPPV [P19H], the protein stability index turned out to be 3.19.

On to FQPQPVQPQQGYIPPMAQPGLPPN [V24N], for which the protein stability index was 2.67.

Take FQPQPVQPQQGYIPPMAQPGLPPK [V24K]: the protein stability index turned out to be 2.92.

As for FQPQPVQPQQGYIPPMAQPGLPPR [V24R], the protein stability index was found to be 3.38.

With FQPQPVQPQQGYIPPMAQPGLPRV [P23R], the protein stability index is 3.02.

FQPQPVQPQQGYIPPMAQPGLPMV [P23M]: the protein stability index is 2.9.

As for FQPQPVQPQQGYIPPMAQPGLPKV [P23K], the protein stability index worked out at 2.95.

As to FQPQPVQPQQGYIPPMAQPGLPLV [P23L], the protein stability index was determined as 3.04.

For the variant FQPQPVQPQQGYIPPKAQPGLPPV [M16K], the protein stability index was determined as 3.21.

With FQPQPVQPQQGYIPPNAQPGLPPV [M16N], the protein stability index was 3.48.

Turning to FQPQPVQPQQGYIPPRAQPGLPPV [M16R], the protein stability index is 2.97.

For the variant FQPQPVQPQQGYIPPMALPGLPPV [Q18L], the protein stability index turned out to be 2.91.

Take FQPQPVQPQQGYIPPMAQPVLPPV [G20V]: the protein stability index stood at 3.72.

As to FQPQPVQPQQGYIPPMAQPQLPPV [G20Q], the protein stability index was found to be 3.46.

As for FQPQPVQPQQGMIPPMAQPGLPPV [Y12M], the protein stability index was 3.72.

Regarding FQPQPVQPQQGDIPPMAQPGLPPV [Y12D], the protein stability index came to 3.73.

Take FQPQPVQPQQGKIPPMAQPGLPPV [Y12K]: the protein stability index was 3.7.

With FQPQPVQPQQGNIPPMAQPGLPPV [Y12N], the protein stability index was 3.77.

In the case of FQPQPVQPQQGAIPPMAQPGLPPV [Y12A], the protein stability index came out at 3.75.

In the case of FQPQPVQPQQGQIPPMAQPGLPPV [Y12Q], the protein stability index was 4.03.

In the case of FQPQPVQPQQGWIPPMAQPGLPPV [Y12W], the protein stability index was 2.6.

With FEPQPVQPQQGYIPPMAQPGLPPV [Q2E], the protein stability index amounted to 3.98.

Consider FYPQPVQPQQGYIPPMAQPGLPPV [Q2Y], for which the protein stability index was 2.92.

As to FFPQPVQPQQGYIPPMAQPGLPPV [Q2F], the protein stability index stood at 3.18.

Take FQPQPVQPQQGYIPPMWQPGLPPV [A17W]: the protein stability index came to 1.93.

Turning to FQPQPVQPQQGYIPPMLQPGLPPV [A17L], the protein stability index was 2.85.

As for FQPQPVQPQQGYIPPMTQPGLPPV [A17T], the protein stability index was 3.22.

As for FQGQPVQPQQGYIPPMAQPGLPPV [P3G], the protein stability index was 3.8.

As to FQKQPVQPQQGYIPPMAQPGLPPV [P3K], the protein stability index came out at 3.04.

With FQTQPVQPQQGYIPPMAQPGLPPV [P3T], the protein stability index came to 3.95.

As to FQIQPVQPQQGYIPPMAQPGLPPV [P3I], the protein stability index stood at 2.67.

Turning to FQHQPVQPQQGYIPPMAQPGLPPV [P3H], the protein stability index was determined as 3.8.

On to FQDQPVQPQQGYIPPMAQPGLPPV [P3D], for which the protein stability index is 3.62.

With FQPQPVQPQPGYIPPMAQPGLPPV [Q10P], the protein stability index was 3.07.

For the variant FQPQPVQPQRGYIPPMAQPGLPPV [Q10R], the protein stability index is 2.79.

FQPQPVQPQAGYIPPMAQPGLPPV [Q10A]: the protein stability index stood at 2.84.

For FQPQPVQPQHGYIPPMAQPGLPPV [Q10H], the protein stability index amounted to 2.62.

As to FQPQPVQPQMGYIPPMAQPGLPPV [Q10M], the protein stability index is 2.81.

With FQPQPVQPQSGYIPPMAQPGLPPV [Q10S], the protein stability index came out at 2.86.

In the case of FQPQPVEPQQGYIPPMAQPGLPPV [Q7E], the protein stability index is 2.98.

In the case of FQPQPVQPHQGYIPPMAQPGLPPV [Q9H], the protein stability index is 3.24.

On to FQPQPVQPEQGYIPPMAQPGLPPV [Q9E], for which the protein stability index turned out to be 3.45.

As for FQPQPVQPVQGYIPPMAQPGLPPV [Q9V], the protein stability index is 3.61.

Turning to FQPQPVQPTQGYIPPMAQPGLPPV [Q9T], the protein stability index was determined as 3.01.

Turning to FQPQPVQPQQSYIPPMAQPGLPPV [G11S], the protein stability index was 2.8.

In the case of FQPQPVQPQQQYIPPMAQPGLPPV [G11Q], the protein stability index is 3.18.

On to FQPQPVQPQQAYIPPMAQPGLPPV [G11A], for which the protein stability index worked out at 3.03.

Take FQPQPVQPQQVYIPPMAQPGLPPV [G11V]: the protein stability index was 2.56.

Turning to FQPQPVQPQQFYIPPMAQPGLPPV [G11F], the protein stability index is 2.45.

As for FQPQPVQPQQEYIPPMAQPGLPPV [G11E], the protein stability index turned out to be 3.69.

With FQPQPVQPQQLYIPPMAQPGLPPV [G11L], the protein stability index was determined as 2.65.

For FQPQPVQPQQMYIPPMAQPGLPPV [G11M], the protein stability index came to 2.66.

As to FQPQPVQPQQYYIPPMAQPGLPPV [G11Y], the protein stability index was determined as 2.18.

As to FQPQIVQPQQGYIPPMAQPGLPPV [P5I], the protein stability index stood at 2.63.

As for FQPQRVQPQQGYIPPMAQPGLPPV [P5R], the protein stability index was found to be 2.58.

Turning to FQPQWVQPQQGYIPPMAQPGLPPV [P5W], the protein stability index stood at 1.62.

FQPQKVQPQQGYIPPMAQPGLPPV [P5K]: the protein stability index amounted to 3.17.

For FQPQGVQPQQGYIPPMAQPGLPPV [P5G], the protein stability index came to 3.45.

With FQPQYVQPQQGYIPPMAQPGLPPV [P5Y], the protein stability index was determined as 2.59.

Regarding FQPQDVQPQQGYIPPMAQPGLPPV [P5D], the protein stability index is 3.18.

Regarding FQPQCVQPQQGYIPPMAQPGLPPV [P5C], the protein stability index amounted to 2.29.

FQPQPVQPQQGYIPPMAQPGLYPV [P22Y]: the protein stability index came out at 2.29.

On to FQPQPVQPQQGYIPPMAQPGLHPV [P22H], for which the protein stability index was found to be 2.83.

With FQPQPVQPQQGYIPPMAQPGLGPV [P22G], the protein stability index worked out at 2.74.

As for FQPQPVQPQQGYIPPMAQPGLDPV [P22D], the protein stability index came to 3.06.

Take FQPQPVQPQQGYCPPMAQPGLPPV [I13C]: the protein stability index turned out to be 3.33.

FQPQPVQPQQGYDPPMAQPGLPPV [I13D]: the protein stability index was 3.57.

Consider FQPQPVQPQQGYGPPMAQPGLPPV [I13G], for which the protein stability index amounted to 3.29.

Regarding FQPQPVQPQQGYQPPMAQPGLPPV [I13Q], the protein stability index came out at 3.59.

On to FQPQPVQPQQGYEPPMAQPGLPPV [I13E], for which the protein stability index stood at 3.71.

FQPQPVQPQQGYSPPMAQPGLPPV [I13S]: the protein stability index came to 3.58.

For FQPQPVQPQQGYIPWMAQPGLPPV [P15W], the protein stability index stood at 1.73.

With FQPQPVQPQQGYIPQMAQPGLPPV [P15Q], the protein stability index worked out at 3.09.

In the case of FQPQPVQPQQGYIPLMAQPGLPPV [P15L], the protein stability index was found to be 2.72.

For the variant FQPQPVQPQQGYIPDMAQPGLPPV [P15D], the protein stability index was 3.04.

On to FQPMPVQPQQGYIPPMAQPGLPPV [Q4M], for which the protein stability index was determined as 2.72.

For FQPRPVQPQQGYIPPMAQPGLPPV [Q4R], the protein stability index is 2.78.

Regarding FQPGPVQPQQGYIPPMAQPGLPPV [Q4G], the protein stability index turned out to be 2.71.

As for FQPCPVQPQQGYIPPMAQPGLPPV [Q4C], the protein stability index was 3.01.

For FQPVPVQPQQGYIPPMAQPGLPPV [Q4V], the protein stability index came out at 3.12.

As for FQPIPVQPQQGYIPPMAQPGLPPV [Q4I], the protein stability index was 2.31.

For GQPQPVQPQQGYIPPMAQPGLPPV [F1G], the protein stability index turned out to be 4.37.

Take VQPQPVQPQQGYIPPMAQPGLPPV [F1V]: the protein stability index is 3.91.

Take TQPQPVQPQQGYIPPMAQPGLPPV [F1T]: the protein stability index was determined as 3.5.

For FQPQPVQPQQGYIPPMAQPGWPPV [L21W], the protein stability index came to 2.26.

As for FQPQPVQAQQGYIPPMAQPGLPPV [P8A], the protein stability index came to 3.27.

Take FQPQPVQSQQGYIPPMAQPGLPPV [P8S]: the protein stability index turned out to be 2.97.

For FQPQPVQVQQGYIPPMAQPGLPPV [P8V], the protein stability index amounted to 2.92.

As to FQPQPVQWQQGYIPPMAQPGLPPV [P8W], the protein stability index came out at 2.31.

Turning to FQPQPVQIQQGYIPPMAQPGLPPV [P8I], the protein stability index was determined as 3.1.

On to FQPQPVQKQQGYIPPMAQPGLPPV [P8K], for which the protein stability index amounted to 3.15.

Regarding FQPQPCQPQQGYIPPMAQPGLPPV [V6C], the protein stability index was 2.89.

Consider FQPQPRQPQQGYIPPMAQPGLPPV [V6R], for which the protein stability index was 2.92.
